One molecule from PMC11429891 can be followed below.

The experiment concerns the target human recombinant SNAP25 (Synaptosomal Associated Protein 25) (human), P60880. The experiment in a line: SPR. (SPR reads the build-up and loss of mass on a sensor chip optically.)

Sequence of human recombinant SNAP25 (Synaptosomal Associated Protein 25) (human), P60880 (P60880 whole entry): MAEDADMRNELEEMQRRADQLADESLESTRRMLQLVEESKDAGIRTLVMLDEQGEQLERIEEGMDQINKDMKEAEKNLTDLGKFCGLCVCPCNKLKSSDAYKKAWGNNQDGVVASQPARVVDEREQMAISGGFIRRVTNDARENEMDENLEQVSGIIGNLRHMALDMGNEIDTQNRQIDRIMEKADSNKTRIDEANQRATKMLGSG

B1: Bovine Type VI Collagen (complex)
chain 1: not shown
chain 2: QQQEVISPGPSDRNSCPEKADCPVHVYFVLDTSESITMQSPTDSLLYHMQQFVLQFISQLQDELYLDQVALSWRYGGLHFSDLVEVFSPPGSDRASFTKSLQSISSFRRGTFTDCMLANMTQEVRRHVGKGVVNFAVVITDGHVTGSPCGGIKLQAERAREEGIRLFAVPPNLKLNEQGLRDIANTPHELYRNNYATMRPDSTEIDQDTINRIIKVMKHEAYGECYKVSCLEIPGPPGPKGYRGQKGAKGNMGEPGEPGQKGRQGDPGIEGPIGFPGPKGVPGFKGEKGEFGADGRKGAPGLAGKNGTDGQKGKLGRIGPPGCKGDTGDRGPDGYVGEAGSPGERGDQGSKGDPGRPGRRGPPGENGAKGSKGYQGNNGAPGSPGLKGAKGGPGPRGPKGEPGRRGDPGTKGGPGSDGPKGEKGDPGPEGPRGLAGEVGNKGAKANRGLPGPRGPQGTVGEPGKQGSRGDPGDAGPRGDSGQPGPKGDPGRPGFSYPGPRGAPGDKGEPGPPGPEGGRGDFGSKGEPGRKGQKGEPADPGPPGEPGPRGQRGAPGPEGEPGPPGDPGLTECDVMTYVRETCGCCDCEKRCGALDVVFVIDSSESIGYTNFTLEKNFVINVVNRLGAIAKDPKSETGTRVGVVQYSHEGTFEAIQLDDERIDSLSSFKEAVKNLEWIAGGTWTPSALKFAYNKLIKESRRQKTRVFAVVITDGRHDPRDDDLNLRALCNHEVTVTAIGIGDMFHEKHESENLYSIACDKPQQVRNMTLFSDLVAEKFIDDMEDVLCPDPQIVCPDLPCQTELYVAQCTQRPVDIVFLLDGSERLGEQNFHKVRRFVEEVSRRLTLARKDDDPLNARVALLQFGGPREQQVAFPLTSNLTVIQEALASARYLNSFSHVGTGIVQAINQVVQGARAGARRHAELSFVFLTDGVTGNDSLDEAVHSMRKQNVVPTVVAVGSDVDTDVLSKISLGDPAAVFREKDYDSLAQPGFFDRFIRWIC
chain 3: not shown
As a reminder, the Kd is the free concentration of one partner at which half of the binding sites on the other are occupied at equilibrium, for simple one-to-one binding. Take B1: the dissociation constant Kd was determined as 15 nM.
